From paper doi:10.1101/2022.10.14.512271

How the values were obtained:
[1] = biological target: lac repressor M42I/K84L (IhL) (UniProt P03023 1-360, M42I;K84L); assay: fluorescence anisotropy
lac repressor M42I (Ihk) = lac repressor M42I (Ihk) (UniProt P03023 1-360, M42I); assay: fluorescence anisotropy
Chain of lac repressor M42I (Ihk) (P03023 whole entry M42I): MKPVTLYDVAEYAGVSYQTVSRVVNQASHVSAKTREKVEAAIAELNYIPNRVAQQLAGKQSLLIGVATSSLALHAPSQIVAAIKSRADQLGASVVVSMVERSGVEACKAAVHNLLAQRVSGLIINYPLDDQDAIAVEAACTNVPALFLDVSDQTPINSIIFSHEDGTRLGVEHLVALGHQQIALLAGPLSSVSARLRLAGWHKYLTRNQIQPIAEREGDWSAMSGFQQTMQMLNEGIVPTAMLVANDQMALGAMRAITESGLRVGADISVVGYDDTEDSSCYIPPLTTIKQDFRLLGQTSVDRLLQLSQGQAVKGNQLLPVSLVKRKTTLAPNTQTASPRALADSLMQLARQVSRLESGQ

Chain of lac repressor M42I/K84L (IhL) (P03023 whole entry M42I/K84L): as the sequence (P03023 whole entry M42I) above, with K84L counted along it

B1: FI-Oid (18-mer operator) (dsDNA)
DNA 1: ATTGTGAGCGCTCACAAT
DNA 2: ATTGTGAGCGCTCACAAT
binding result [1]: binds | binding result (lac repressor M42I (Ihk)): binds
